Measured values published in paper doi:10.1101/2025.07.10.664194.

Assays:
Experiment in all cases: mass photometry
[1] = target: BtHamA (not stated (prefix Bt))
[2] = target: EcHna (E. coli (from the prefix Ec))
[3] = target: EcPD-T4-1 (E. coli)
[4] = target: EcPD-T4-8 (E. coli)
[5] = target: PaAbpA (not stated (prefix Pa))
[6] = target: PfOloA (not stated (prefix Pf))

BtHamB (natural protein)
stoichiometry N (HamA:HamB (1:1)) [1]: 1

EcHna (natural protein)
stoichiometry N [2]: 2

EcPD-T4-1 (natural protein)
stoichiometry N [3]: 2

EcPD-T4-8 (natural protein)
stoichiometry N [4]: 4

PaAbpB (natural protein)
stoichiometry N (AbpA:AbpB (1:1)) [5]: 1

PfOloB (natural protein)
stoichiometry N (OloA:OloB (2:2)) [6]: 1
